Measurements from US12281340B2, “Method of producing N-acyl-amino group-containing compound” (AJINOMOTO CO., INC., priority 2018, dated 2025).

B1: AtGH3-5: indole-3-acetic acid-amido synthetase GH3.5 from Arabidopsis thaliana, His-tagged (protein, listed as Arabidopsis thaliana)
chain: MPEAPKKESLEVFDLTLDQKNKQKLQLIEELTSNADQVQRQVLEEILTRNADVEYLRRHDLNGRTDRETFKNIMPVITYEDIEPEINRIANGDKSPILSSKPISEFLTSSGTSGGERKLMPTIEEELDRRSLLYSLLMPVMSQFVPGLENGKGMYFLFIKSESKTPGGLPARPVLTSYYKSSHFKERPYDPYTNYTSPNETILCSDSYQSMYSQMLCGLCQHQEVLRVGAVFASGFIRAIKFLEKHWIELVRDIRTGTLSSLITDPSVREAVAKILKPSPKLADFVEFECKKSSWQGIITRLWPNTKYVDVIVTGTMSQYIPTLDYYSNGLPLVCTMYASSECYFGVNLRPLCKPSEVSYTLIPSMAYFEFLPVHRNNGVTNSINLPKALTEKEQQELVDLVDVKLGQEYELVVTTYAGLCRYRVGDLLRVTGFKNKAPQFSFICRKNVVLSIDSDKTDEVELQNAVKNAVTHLVPFDASLSEYTSYADTSSIPGHYVLFWELCLDGNTPIPPSVFEDCCLAVEESFNTVYRQGRVSDKSIGPLEIKIVEPGTFDKLMDYAISLGASINQYKTPRCVKFAPIIELLNSRVVDSYFSPKCPKWVPGHKQWGSN
modifications: His-tag
notes: indole-3-acetic acid-amido synthetase GH3.5 from Arabidopsis thaliana, His-tagged
B2: OsGH3-8: probable indole-3-acetic acid-amido synthetase GH3.8 from Oryza sativa, expressed in E. coli with N-terminal His-tag (protein, listed as Oryza sativa)
chain: MAVMTDVSTTGTALRTPAAGAVKEGDVEKLRFIDEMTTNVDAVQERVLGEILGRNAGTEYLTKCGLDGATDRAAFRAKVPVVSYDDLQPYIQRIANGDRSPILSTHPVSEFLTSSGTSAGERKLMPTIMDELDRRQLLYSLLMPVMNLYVPGLDKGKGLYFLFVKSETKTPGGLTARPVLTSYYKSDHFKNRPYDPYHNYTSPTAAILCADAFQSMYAQMVCGLCQRNDVLRLGAVFASGLLRAIRFLQLNWEQLADDIESGELTPRVTDPSVREAVAAILLPDPELAKLIRAECSKGDWAGIITRVWPNTKYLDVIVTGAMAQYIPTLEFYSGGLPMACTMYASSECYFGLNLRPMCDPSEVSYTIMPNMGYFEFLPVDETGAASGDATQLVDLARVEVGREYELVITTYAGLNRYRVGDVLRVTGFHNAAPQFRFVRRKNVLLSIESDKTDEAELQRAVERASALLRPHGASVVEYTSQACTKRIPGHYVIYWELLTKGAGATVVDADTLGRCCLEMEEALNTVYRQSRVADGSIGPLEIRVVRPGTFEELMDYAISRGASINQYKVPRCVTFPPIVELLDSRVVSSHFSPALPHWTPARRSE
modifications: N-terminal His-tag
notes: probable indole-3-acetic acid-amido synthetase GH3.8 from Oryza sativa, expressed in E. coli with N-terminal His-tag

Key:
Type in all cases: biochemical
[1] = Synthesis of N-caprinoyl-amino acid derivative, N-caprinoyl-D-amino acid and N-caprinoyl-peptide using purified acylamino acid synthetase, UPLC-MS detection; set-up: key: +: Detected; −: Not detected; conditions: +ATP
Summary of the method: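 Purified enzyme (50 μg/mL) was incubated with 5 mM sodium caprate, 5 mM amino acid derivative, D-amino acid or peptide, 10 mM ATP, 10 mM MgCl2 and 1 mM DTT in 50 mM Tris-HCl, pH 8.0, for 24 h at 25 °C. After acidic methanol stop, UPLC-MS looked for the mass of the N-caprinoyl product.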

[2] = Synthesis of N-lauroylamino acid / N-lauroylamino acid derivative using purified acylamino acid synthetase, UPLC-MS detection; set-up: key: +: Detected; −: Not detected; conditions: +ATP
Description: 0.2 mL of a reaction solution containing 50 mM Tris-HCl, 5 mM amino acid or D-amino acid derivative, 5 mM sodium laurate, 10 mM ATP, 10 mM MgCl2, 1 mM DTT, 200 μg/mL of the purified enzyme, pH 8.0 was incubated at 25° C. for 24 hours. After completion of the reaction, 0.8 mL of the reaction stop solution (1% (v/v) phosphoric acid, 75% (v/v) methanol) was added, and the mixture was filtrated through the filter followed by being subjected to the UPLC-MS analysis to detect a signal of a molecular weight corresponding to an N-lauroyl-amino acid or an N-lauroyl-amino acid derivative. The condition for the UPLC-MS analysis is as described in Example 2.
As a result of the UPLC-MS analysis, the signal of the molecular weight corresponding to the N-lauroyl-amino acid or the N-lauroyl-amino acid derivative was confirmed in the reaction solution containing the enzyme in combination with the amino acid or the amino acid derivative shown in Table 5 below.

[3] = Quantification of produced N-acylamino acid (UV 210 nm) using purified acylamino acid synthetase; conditions: 5 mM L-Asp, 5 mM sodium fatty acid, 200 μg/mL enzyme, 25° C., 24 hours
Description: 0.1 mL of a reaction solution containing 50 mM Tris-HCl, 5 mM amino acid, 5 mM sodium fatty acid, 10 mM ATP, 10 mM MgCl2, 1 mM DTT, 200 μg/mL of the purified enzyme, pH 8.0 was incubated at 25° C. for 24 hours. As amino acids, L-Asp was used in AtGH3-6, OsGH3-8, AtGH3-5, AtGH3-12, and Gly or L-Ala was used in CfHP. After completion of the reaction, 0.4 mL of the reaction stop solution (1% (v/v) phosphoric acid, 75% (v/v) methanol) was added, and the mixture was filtrated through the filter followed by being subjected to the UPLC-MS analysis to quantify the produced N-acylamino acid by detection at UV 210 nm. The condition for the UPLC-MS analysis is as descried in Example 2. As a result of the analysis, 3.9 mM of Nα-capryloyl-L-aspartic acid, 4.5 mM of Nα-caprinoyl-L-aspartic acid and 2.2 mM of Nα-lauroyl-L-aspartic acid were detected when AtGH3-6 was used; 4.3 mM of Nα-capryloyl-L-aspartic acid, 4.6 mM of Nα-caprinoyl-L-aspartic acid and 3.5 mM of Nα-lauroyl-L-aspartic acid were detected when OsGH3-8 was used; 4.1 mM of Nα-capryloyl-L-aspartic acid, 4.6 mM of Nα-caprinoyl-L-aspartic acid and 2.5 mM of Nα-lauroyl-L-aspartic acid were detected when AtGH3-5 was used; 1.6 mM of Nα-capryloyl-L-aspartic acid, 0.6 mM of Nα-caprinoyl-L-aspartic acid and 0.2 mM of Nα-lauroyl-L-aspartic acid were detected when AtGH3-12 was used; 4.5 mM of Nα-capryloylglycine, 4.6 mM of Nα-caprinoylglycine, 0.1 mM of Nα-lauroylglycine, 3.1 mM of Nα-capryloyl-L-alanine, 3.6 mM of Nα-caprinoyl-L-alanine and 0.4 mM of Nα-lauroyl-L-alanine were detected when CfHP was used.

[4] = Synthesis of N-acylamino acids from various fatty acids using purified acylamino acid synthetase, UPLC-MS detection; set-up: key: +: Detected; −: Not detected
Summary of the method: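 Purified enzyme (200 μg/mL) with 5 mM amino acid, 5 mM sodium fatty acid (3 mM palmitate or stearate, plus 10% methanol), 10 mM ATP, 10 mM MgCl2, 1 mM DTT in 50 mM Tris-HCl pH 8.0, shaken 24 h at 25 °C. Amino acid varied by enzyme; product mass detected by UPLC-MS (ESI-negative).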

[5] = substrates Carnosine and sodium caprate
[6] = substrates D-Ala and sodium caprate
[7] = substrates D-Asp and sodium caprate
[8] = substrates D-Cys and sodium caprate
[9] = substrates D-Glu and sodium caprate
[10] = substrates D-Ile and sodium caprate
[11] = substrates D-Lys and sodium caprate
[12] = substrates L-Asp-L-Phe and sodium caprate
[13] = substrates L-Gly-L-Gly and sodium caprate
[14] = substrates Sarcosine and sodium caprate
[15] = substrates Taurine and sodium caprate
[16] = substrates Gly and sodium laurate
[17] = substrates L-Ala and sodium laurate
[18] = substrates L-Arg and sodium laurate
[19] = substrates L-Asp and sodium laurate
[20] = substrates L-Glu and sodium laurate
[21] = substrates L-Lys and sodium laurate
[22] = substrates L-Thr and sodium laurate
[23] = substrates β-Ala and sodium laurate
[24] = substrates L-Asp and Capric acid
[25] = substrates L-Asp and Caproic acid
[26] = substrates L-Asp and Caprylic acid
[27] = substrates L-Asp and Lauric acid
[28] = substrates L-Asp and Linoleic acid
[29] = substrates L-Asp and Palmitic acid
[30] = substrates L-Asp and myristic acid

| Molecule | signal of molecular weight corresponding to N-caprinoyl compound [1, 5] | signal of molecular weight corresponding to N-caprinoyl compound [1, 6] | signal of molecular weight corresponding to N-caprinoyl compound [1, 7] | signal of molecular weight corresponding to N-caprinoyl compound [1, 8] | signal of molecular weight corresponding to N-caprinoyl compound [1, 9] | signal of molecular weight corresponding to N-caprinoyl compound [1, 10] | signal of molecular weight corresponding to N-caprinoyl compound [1, 11] | signal of molecular weight corresponding to N-caprinoyl compound [1, 12] | signal of molecular weight corresponding to N-caprinoyl compound [1, 13] | signal of molecular weight corresponding to N-caprinoyl compound [1, 14] | signal of molecular weight corresponding to N-caprinoyl compound [1, 15] | signal of molecular weight corresponding to N-lauroyl amino acid [2, 16] | signal of molecular weight corresponding to N-lauroyl amino acid [2, 17] | signal of molecular weight corresponding to N-lauroyl amino acid [2, 18] | signal of molecular weight corresponding to N-lauroyl amino acid [2, 19] | signal of molecular weight corresponding to N-lauroyl amino acid [2, 20] | signal of molecular weight corresponding to N-lauroyl amino acid [2, 21] | signal of molecular weight corresponding to N-lauroyl amino acid [2, 22] | signal of molecular weight corresponding to N-lauroyl amino acid [2, 23] | Nα-caprinoyl-L-aspartic acid detected [3] [mM] | other results |
| --- | --- | --- | --- | --- | --- | --- | --- | --- | --- | --- | --- | --- | --- | --- | --- | --- | --- | --- | --- | --- | --- |
| B1 | + | + | + | + | + | + | + | + | + | + | + | + | + | + | + | + | + | + | + | 4.6 | Nα-capryloyl-L-aspartic acid detected [3]: 4.1 mM; Nα-lauroyl-L-aspartic acid detected [3]: 2.5 mM; signal of molecular weight corresponding to N-acylamino acid [4, 24]: +; signal of molecular weight corresponding to N-acylamino acid [4, 25]: +; signal of molecular weight corresponding to N-acylamino acid [4, 26]: +; signal of molecular weight corresponding to N-acylamino acid [4, 27]: +; signal of molecular weight corresponding to N-acylamino acid [4, 28]: −; signal of molecular weight corresponding to N-acylamino acid [4, 29]: +; signal of molecular weight corresponding to N-acylamino acid [4, 30]: + |
| B2 | + | + | + | + | + | + | + | + | + | + | + | + | + | + | + | + | + | + | + | 4.6 | Nα-capryloyl-L-aspartic acid detected [3]: 4.3 mM; Nα-lauroyl-L-aspartic acid detected [3]: 3.5 mM; signal of molecular weight corresponding to N-acylamino acid [4, 24]: +; signal of molecular weight corresponding to N-acylamino acid [4, 25]: +; signal of molecular weight corresponding to N-acylamino acid [4, 26]: +; signal of molecular weight corresponding to N-acylamino acid [4, 27]: +; signal of molecular weight corresponding to N-acylamino acid [4, 28]: −; signal of molecular weight corresponding to N-acylamino acid [4, 29]: +; signal of molecular weight corresponding to N-acylamino acid [4, 30]: + |
